No end group written: not given here.

The values below come from publication PMC8776337, “Peptides Derived from Vascular Endothelial Growth Factor B Show Potent Binding to Neuropilin‐1” (Chembiochem, 2021).

The chains are these.
B1: b1 domain of neuropilin‐1 (NRP1‐b1) (domain or fragment, human)
chain: FKCMEALGMESGEIHSDQITASSQYSTNWSAERSRLNYPENGWTPGEDSYREWIQVDLGLLRFVTAVGTQGAISKETKKKYYVKTYKIDVSSNGEDWITIKEGNKPVLFQGNTNPTDVVVAVFPKPLITRFVRIKPATWETGISMRFEVYGCKIT
notes: neuropilin-1, human, b1 domain; also called NRP1‐b1 domain; NRP1 b1 domain; source: E. coli Rosetta (DE3), purified (HisTrap, TEV cleavage, Superdex 75, SP FF ion exchange)

In assay [1] the target is T1, NRP1‐b1 binding to VEGF‐A165 (Homo sapiens, UniProt O14786).
T1 construct: poly-histidine (TEV-cleavable) (cleaved yes); made in house; host or cells: E. coli Rosetta (DE3) (NRP1-b1 only)
T1 sequence (O14786 275-424 limits assumed): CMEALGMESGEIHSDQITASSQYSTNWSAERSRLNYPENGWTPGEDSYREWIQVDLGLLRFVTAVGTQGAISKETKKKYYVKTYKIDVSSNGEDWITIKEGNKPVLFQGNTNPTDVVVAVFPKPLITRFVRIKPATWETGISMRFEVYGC
Nature of the assay: SPR EG01377 competition assay, NRP1-b1 binding to immobilised VEGF-A165. The settings on record: NRP1-b1 5 μM, EG01377 1.25 to 10 μM, 60 s. From the text: (§1) We have previously reported the use of SPR to characterise the interaction between the immobilized b1 domain of NRP1 (NRP1‐b1) and VEGF‐A‐derived peptides,[23] arginine analogues,[26] and small molecules.[27, 28] When we attempted to measure the binding affinity of VEGF‐B isoforms to immobilized NRP1‐b1 we observed non‐saturable binding responses. Increasing concentrations of VEGF‐B over immobilised NRP1 led to response units (RU) higher than the theoretical maximum for a 1 : 1 interaction. The shape of the curves remained consistent at low and high concentration and was not typical of sample precipitation (fuzzy heterogeneous curves, commonly observed only at higher concentrations). […] We consider that the observations are consistent with oligomerization as a form of non‐specific binding. […] To circumvent this, we immobilized VEGF‐B167 and VEGF‐A165 (Figure 2) onto a sensor chip and measured the binding of NRP1‐b1 domain in solution. Using this method, the binding affinity of NRP1‐b1 to immobilized VEGF‐A165 was 100‐fold lower than previously observed when the interaction was measured in reverse experimental configuration.[23] […] We then sought to investigate if binding could be blocked by a known inhibitor of the VEGF‐A interaction with NRP1‐b1. […]

The subject of assay [2] is VEGFs. As to the kind of experiment: SPR direct binding of EG01377 to immobilised VEGFs. On the set-up: species or system human. The settings on record: immobilised VEGF-A165 and VEGF-B167.
Description: as §1

Assay [3] addresses T2, NRP1‐b1 binding to VEGF‐B167 (Homo sapiens, UniProt O14786).
T2 construct: poly-histidine (TEV-cleavable) (cleaved yes); made in house; host or cells: E. coli Rosetta (DE3) (NRP1-b1 only)
T2 sequence (O14786 275-424 limits assumed): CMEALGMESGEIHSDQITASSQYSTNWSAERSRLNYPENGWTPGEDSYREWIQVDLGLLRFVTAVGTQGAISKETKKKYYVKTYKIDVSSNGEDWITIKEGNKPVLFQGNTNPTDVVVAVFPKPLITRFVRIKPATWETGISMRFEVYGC
As to the kind of experiment: SPR EG01377 competition assay, NRP1-b1 binding to immobilised VEGF-B167. To be noted: NRP1-b1 5 μM, EG01377 6.25 to 50 μM, 60 s.
Description: as §1

Assay [4] concerns the target T3, NRP1‐b1 (Homo sapiens, UniProt O14786).
T3 construct: the immobilized b1 domain of NRP1 (NRP1‐b1); poly-histidine (TEV-cleavable) (cleaved yes); made in house; host or cells: E. coli Rosetta (DE3)
T3 sequence (O14786 275-424 limits assumed): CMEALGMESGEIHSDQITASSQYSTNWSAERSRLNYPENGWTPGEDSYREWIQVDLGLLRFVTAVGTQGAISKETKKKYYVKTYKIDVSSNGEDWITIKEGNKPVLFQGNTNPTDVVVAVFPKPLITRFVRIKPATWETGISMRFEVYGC
Nature of the assay: SPR binding of NRP1-b1 in solution to immobilised VEGFs. To be noted: VEGF immobilised on CM5 chip, NRP1-b1 0.25 to 64 μM in PBS, 60 s, steady-state, 1:1 interaction, 25 °C, read-out: KD of NRP1‐b1 for immobilized VEGF. From the text:
We have previously reported the use of SPR to characterise the interaction between the immobilized b1 domain of NRP1 (NRP1‐b1) and VEGF‐A‐derived peptides,[23] arginine analogues,[26] and small molecules.[27, 28] When we attempted to measure the binding affinity of VEGF‐B isoforms to immobilized NRP1‐b1 we observed non‐saturable binding responses. Increasing concentrations of VEGF‐B over immobilised NRP1 led to response units (RU) higher than the theoretical maximum for a 1 : 1 interaction. The shape of the curves remained consistent at low and high concentration and was not typical of sample precipitation (fuzzy heterogeneous curves, commonly observed only at higher concentrations). […] We consider that the observations are consistent with oligomerization as a form of non‐specific binding. […] To circumvent this, we immobilized VEGF‐B167 and VEGF‐A165 (Figure 2) onto a sensor chip and measured the binding of NRP1‐b1 domain in solution. Using this method, the binding affinity of NRP1‐b1 to immobilized VEGF‐A165 was 100‐fold lower than previously observed when the interaction was measured in reverse experimental configuration.[23] […]
Binding of NRP1‐b1 to VEGFs: Dose responses were obtained by injecting NRP1‐b1 in PBS over the immobilized VEGFs for 60 s, using two‐fold dilutions from 64 to 0.25 μM. Steady‐state binding affinities were calculated assuming a 1 : 1 interaction.

Assay [5] addresses T4, VEGF‐A165 (human, UniProt P15692-4 1-191).
T4 construct: vascular endothelial growth factor A, isoform VEGF-A165, human
Nature of the assay: SPR; VEGF-A165 and VEGF-B167 immobilised on a CM5 chip by random amine coupling; NRP1-b1 in PBS injected for 60 s, two-fold dilutions from 64 to 0.25 μM; 25 °C; steady-state affinity assuming a 1:1 interaction. The settings on record: both partners purified. In general terms: SPR reads the build-up and loss of mass on a sensor chip optically.

The target of assay [6] is T5, VEGF‐B167 (human, UniProt P49765-2 22-188).
T5 construct: vascular endothelial growth factor B, isoform VEGF-B167, human
T5 sequence (looked up): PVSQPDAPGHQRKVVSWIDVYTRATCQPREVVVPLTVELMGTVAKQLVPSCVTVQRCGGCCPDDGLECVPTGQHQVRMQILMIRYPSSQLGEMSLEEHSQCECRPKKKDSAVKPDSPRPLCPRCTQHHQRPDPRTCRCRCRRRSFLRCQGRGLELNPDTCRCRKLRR
The assay is described as above. To be noted: both partners purified.

Assay [7] deals with B1. Nature of the assay: SPR; NRP1-b1 immobilised on a CM5 chip by random amine coupling; peptides injected for 60 s, 120 or 180 s dissociation; 25 °C; regeneration with 1 M NaCl; kinetic fit, 1:1 model (MGC0122, MGC0123, MGC0124) or two-state model (MGC0171, MGC0172, MGC0173, MGC0174). To be noted: both partners purified.

T4 sequence (P15692 other isoform, or with tags, fused parts or gaps): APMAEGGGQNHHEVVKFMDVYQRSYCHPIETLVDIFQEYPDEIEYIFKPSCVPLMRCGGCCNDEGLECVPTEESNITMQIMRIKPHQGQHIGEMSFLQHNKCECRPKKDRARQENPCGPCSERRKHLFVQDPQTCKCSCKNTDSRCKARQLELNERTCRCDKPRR

For the molecule `NCc1ccc(-c2cc3c(c(S(=O)(=O)Nc4ccsc4C(=O)N[C@@H](CCCN=C(N)N)C(=O)O)c2)OCC3)cc1` [EG01377], the “Effect on binding of NRP1‐b1 to immobilised VEGF‐A165” value in assay [1] was “reduced the binding”. The “Binding to VEGFs” value in assay [2] is “No binding was observed”. In addition, the “Effect on binding of NRP1‐b1 to immobilised VEGF‐B167” value in assay [3] is “reduced the binding”.

The Kd is a measure of binding affinity in units of concentration. Turning to “VEGF‐A165: Vascular endothelial growth factor A isoform 165, immobilised on the sensor chip”, the Kd in assay [4] is 9 µM.

B1: the Kd in assay [5] was determined as 9 µM; in assay [6] it was 36 µM.

B2: VEGF‐B167: Vascular endothelial growth factor B isoform 167, immobilised on the sensor chip (protein)
chain: PVSQPDAPGHQRKVVSWIDVYTRATCQPREVVVPLTVELMGTVAKQLVPSCVTVQRCGGCCPDDGLECVPTGQHQVRMQILMIRYPSSQLGEMSLEEHSQCECRPKKKDSAVKPDSPRPLCPRCTQHHQRPDPRTCRCRCRRRSFLRCQGRGLELNPDTCRCRKLRR
As to B2, the Kd in assay [4] turned out to be 36 µM.

B3: MGC0124 (peptide)
chain: SCKNTDSRCKARQLELNERTCRCDKPRR
modifications: disulfide (positions not given here); not fully specified (N-terminus); also: cyclised by disulphide, Cys pairing not given here
In the case of B3, the affinity in assay [7], expressed as Kd, was 3.33 ± 0.1 µM.
